Test results from patent publication US20230000974A1.

Tested on: T1, fluorogenic substrate (R&D systems, cat no. ES007), peptide YVADAPK between Mca and Dnp groups
T1 sequence: YVADAPK

commercial ACE-2 from Sino Biological (cat no 10108H08H20)
enzymatic activity assay using a fluorogenic substrate (fluorescence, excitation 320 nm, emission 405 nm): All four samples appeared to have similar levels of activity
